Experimental data reported in US20260166158A1, “HSP90-BINDING CONJUGATES AND FORMULATIONS THEREOF” (Fusion Pharmaceuticals Inc., priority 2019, published 2026).

Legend:
[1] = test system: NCI-H460 tumor-bearing mice (lung cancer); experiment: Biodistribution: lutetium accumulation in tumor, plasma and healthy tissues by ICP-MS; type: in vivo; details: for % ID/g uptake, H460 tumor, 24 h / % ID/g uptake, H460 tumor, 72 h / % ID/g uptake, Kidney, 24 h / % ID/g uptake, Kidney, 72 h / % ID/g uptake, Liver, 24 h / % ID/g uptake, Liver, 72 h / % ID/g uptake, Plasma, 24 h / % ID/g uptake, Plasma, 72 h: 0.5 mg/kg lutetium conjugate; for % ID/g uptake, H460 tumor, 24 h / % ID/g uptake, Kidney, 24 h / % ID/g uptake, Liver, 24 h / % ID/g uptake, Plasma, 24 h / T/K (Tumor/Kidney ratio) / T/L (Tumor/Liver ratio) / T/P (Tumor/Plasma ratio) / Kidney uptake, % ID/g 24 h / Liver uptake, % ID/g 24 h / Plasma, % ID/g 24 h / Tumor uptake, % ID/g, 24 h: 24 h; for Kidney uptake, % ID/g 24 h / Liver uptake, % ID/g 24 h / Plasma, % ID/g 24 h / Tumor uptake, % ID/g, 24 h: second table
Procedure, shortened: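 NCI-H460 tumor-bearing mice received 0.5 mg/kg lutetium conjugates; at set time points tumor, liver, kidneys and plasma were collected. Lutetium content measured by ICP-MS and expressed as % ID/g, with 24 h tumor/kidney, tumor/liver and tumor/plasma ratios.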

[2] = target: T1, purified N-terminal HSP90a (Homo sapiens, UniProt P07900); experiment: HSP90 binding, competitive fluorescence polarization assay
T1 construct: 350 ng of N-terminal HSP90a
Protocol: HSP90 binding was determined by a competitive fluorescence polarization assay with purified N-terminal HSP90a. A series of dilutions of the test compounds were prepared with 10% DMSO in assay buffer and 10 μl of the dilution was added to a 100 μl reaction so that the final concentration of DMSO is 1% in all reactions. The reactions were conducted at room temperature for 3 hours in a 100 μl mixture containing assay buffer, 5 nM FITC Labeled Geldanamycin, 350 ng of N-terminal HSP90a, and the test compound. Fluorescence intensity was measured at an excitation of 485 nm and an emission of 530 nm using a Tecan Infinite M1000 microplate reader. Fluorescence intensity is converted to fluorescence polarization using the Tecan Magellan6 software. The fluorescence polarization data were analyzed using the computer software, Graphpad Prism. The fluorescence polarization (FPt) in absence of the compound in each data set was defined as 100% activity. In the absence of protein and the compound, the value of fluorescent polarization (FPb) in each data set was defined as 0% activity. The percent activity in the presence of the compound was calculated according to the following equation: % activity=(FP−FPb)/(FPt−FPb)×100%, where FP=the fluorescence polarization in the presence of the compound. HSP90 binding data are below.

[3] = test system: NCI-H460 tumor model; experiment: Distribution of cold (Lu175) analog of CMP6; type: in vivo
Protocol: In yet another study with the NCI-H460 tumor model, the distribution of the cold analog of CMP6 was measured at 24 hours and 72 hours.

[4] = test system: NCI-H460 tumor model; experiment: Distribution of radioactive (177Lu) versus non-radioactive (175Lu) analog of CMP51; type: in vivo; details: radioactive analog comprising Lu177
Protocol: In another study with the NCI-H460 tumor model, the distribution of the radioactive (hot) analog of CMP51 (177Lu) and the distribution of the non-radioactive (cold) analog of CMP51 (175Lu) at 24 hours and 72 hours were tested and compared.

[5] = cold analog, 24 hours and 72 hours, FIG. 2

Row | SMILES | % ID/g uptake, H460 tumor, 24 h [1] | % ID/g uptake, H460 tumor, 72 h [1] | % ID/g uptake, Kidney, 24 h [1] | % ID/g uptake, Kidney, 72 h [1] | % ID/g uptake, Liver, 24 h [1] | % ID/g uptake, Liver, 72 h [1] | % ID/g uptake, Plasma, 24 h [1] | % ID/g uptake, Plasma, 72 h [1] | Kd [2] | further results
1 | CCNC(=O)c1nnc(-c2cc(C(C)C)c(O)cc2O)n1-c1ccc(CN2CCN(C(=O)CCNC(=O)[C@@H](CCC(=O)N3CCN(Cc4ccc(-n5c(C(=O)NCC)nnc5-c5cc(C(C)C)c(O)cc5O)cc4)CC3)NC(=O)CCNC(=O)[C@@H](CCC(=O)O)NC(=O)[C@@H](CCC(=O)O)NC(=O)[C@@H](CCC(=O)O)NC(=O)COCCOCCNC(=O)CNC(=O)[C@H](CCCCN)NC(=O)CNC(=O)CC[C@H](C(=O)O)N3CCN4CCN5CCN(CC3)CC(=O)[O][Lu]([O]C(=O)C5)[O]C(=O)C4)CC2)cc1 [T9] | 2.43 % ID/g | 0.93 % ID/g | 8.15 % ID/g | 2.78 % ID/g | 0.62 % ID/g | 0.25 % ID/g | 26.50 % ID/g | 1.53 % ID/g | 0.47 nM | –
2 | CCNC(=O)c1nnc(-c2cc(C(C)C)c(O)cc2O)n1-c1ccc(OC2CCN(C(=O)CCNC(=O)[C@@H](CCC(=O)O)NC(=O)[C@@H](CCC(=O)O)NC(=O)[C@@H](CCC(=O)O)NC(=O)COCCOCCNC(=O)[C@H](CCCCNC(=O)CC[C@H](C(=O)O)N3CCN4CCN5CCN(CC3)CC(=O)[O][Lu]([O]C(=O)C5)[O]C(=O)C4)NC(=O)CCCc3ccc(I)cc3)CC2)cc1 [T11] | 6.37 % ID/g | 1.74 % ID/g | 14.90 % ID/g | 5.21 % ID/g | 1.03 % ID/g | 0.46 % ID/g | 0.51 % ID/g | 0.02 % ID/g | 0.7 nM | –
3 | CCNC(=O)c1nnc(-c2cc(C(C)C)c(O)cc2O)n1-c1ccc(CN2CCN(C(=O)CCNC(=O)[C@@H](CCC(=O)N3CCN(Cc4ccc(-n5c(C(=O)NCC)nnc5-c5cc(C(C)C)c(O)cc5O)cc4)CC3)NC(=O)CCNC(=O)[C@@H](CCC(=O)O)NC(=O)[C@@H](CCC(=O)O)NC(=O)[C@@H](CCC(=O)O)NC(=O)COCCOCCNC(=O)[C@H](Cc3ccccc3)NC(=O)CNC(=O)[C@H](CCCCNC(=O)CC[C@H](C(=O)O)N(CC)CCN3CCN4CCN(C)CC(=O)[O][Lu]([O]C(=O)C4)[O]C(=O)C3)NC(=O)CCCc3ccc(I)cc3)CC2)cc1 [T15] | 2.16 % ID/g | 0.70 % ID/g | 12.50 % ID/g | 4.37 % ID/g | 1.78 % ID/g | 1.16 % ID/g | 2.79 % ID/g | 0.14 % ID/g | 0.43 nM | –
4 | CCNC(=O)c1nnc(-c2cc(C(C)C)c(O)cc2O)n1-c1ccc(OC2CCN(C(=O)CCNC(=O)[C@@H](CCC(=O)N3CCC(Oc4ccc(-n5c(C(=O)NCC)nnc5-c5cc(C(C)C)c(O)cc5O)cc4)CC3)NC(=O)CC[C@H](C(=O)O)N3CCN4CCN5CCN(CC3)CC(=O)[O][Lu]([O]C(=O)C5)[O]C(=O)C4)CC2)cc1 [T6] | 7.00 % ID/g | 4.52 % ID/g | 6.77 % ID/g | 2.57 % ID/g | 10.70 % ID/g | 8.90 % ID/g | 1.65 % ID/g | 1.89 % ID/g | 0.45 nM | –
5 | CCNC(=O)c1nnc(-c2cc(C(C)C)c(O)cc2O)n1-c1ccc(CN2CCN(C(=O)CCNC(=O)[C@@H](CCC(=O)N3CCN(Cc4ccc(-n5c(C(=O)NCC)nnc5-c5cc(C(C)C)c(O)cc5O)cc4)CC3)NC(=O)CCNC(=O)[C@@H](CCC(=O)O)NC(=O)[C@@H](CCC(=O)O)NC(=O)[C@@H](CCC(=O)O)NC(=O)COCCOCCNC(=O)CC[C@H](C(=O)O)N3CCN4CCN5CCN(CC3)CC(=O)[O][Lu]([O]C(=O)C5)[O]C(=O)C4)CC2)cc1 [T4] | 3.06 % ID/g | 2.19 % ID/g | 4.86 % ID/g | 2.28 % ID/g | 0.59 % ID/g | 0.62 % ID/g | 0.21 % ID/g | 0.09 % ID/g | 0.45 nM | –
6 | CCNC(=O)c1nnc(-c2cc(C(C)C)c(O)cc2O)n1-c1ccc(OC2CCN(C(=O)CCOCCOCCOCCOCCNC(=O)[C@H](CCCCNC(=O)CCCc3ccc(I)cc3)NC(=O)CN3CCN4CCN5CCN(CC3)CC(=O)[O][Lu]([O]C(=O)C4)[O]C(=O)C5)CC2)cc1 [CMP6] | – | – | – | – | – | – | – | – | – | T/K (Tumor/Kidney ratio) [1]: 5.48; T/L (Tumor/Liver ratio) [1]: 4.98; T/P (Tumor/Plasma ratio) [1]: 1.98; Kidney uptake, % ID/g 24 h [1]: 0.62 % ID/g; Liver uptake, % ID/g 24 h [1]: 0.68 % ID/g; Plasma, % ID/g 24 h [1]: 1.72 % ID/g; Tumor uptake, % ID/g, 24 h [1]: 3.40 % ID/g; kidney uptake and retention [3, 5]: significantly reduced kidney uptake and retention; liver uptake [3, 5]: significantly reduced; tumor to liver and tumor to kidney ratios at 72 hours ([3]; cold analog, 72 hours versus 24 hours): enhanced at 72 hours; tumor to liver and tumor to kidney ratios ([3]; cold analog, FIG. 2): High tumor to liver and tumor to kidney ratios; tumor retention selectivity (FIG. 2 legend) ([3]; non-radioactive analog comprising Lu175): selective tumor retention over kidney and liver
7 | CCNC(=O)c1nnc(-c2cc(C(C)C)c(O)cc2O)n1-c1ccc(CN2CCN(C(=O)CCNC(=O)[C@@H](CCC(=O)N3CCN(Cc4ccc(-n5c(C(=O)NCC)nnc5-c5cc(C(C)C)c(O)cc5O)cc4)CC3)NC(=O)CCNC(=O)[C@@H](CCC(=O)O)NC(=O)[C@@H](CCC(=O)O)NC(=O)[C@@H](CCC(=O)O)NC(=O)COCCOCCNC(=O)[C@H](Cc3ccccc3)NC(=O)CNC(=O)CNC(=O)CC[C@H](C(=O)O)N3CCN4CCN5CCN(CC3)CC(=O)[O][Lu]([O]C(=O)C5)[O]C(=O)C4)CC2)cc1 [T8] | 1.00 % ID/g | 0.44 % ID/g | 3.24 % ID/g | 0.84 % ID/g | 0.30 % ID/g | 0.07 % ID/g | 0.17 % ID/g | 0.00 % ID/g | 0.48 nM | –
8 | CCNC(=O)c1nnc(-c2cc(C(C)C)c(O)cc2O)n1-c1ccc2c(ccn2CCC2CCN(C(=O)CC[C@H](NC(=O)CC[C@H](C(=O)O)N3CCN4CCN5CCN(CC3)CC(=O)[O][Lu]([O]C(=O)C5)[O]C(=O)C4)C(=O)N3CCC(CCn4ccc5cc(-n6c(C(=O)NCC)nnc6-c6cc(C(C)C)c(O)cc6O)ccc54)CC3)CC2)c1 [T10] | 3.91 % ID/g | 3.18 % ID/g | 14.70 % ID/g | 7.74 % ID/g | 7.28 % ID/g | 4.34 % ID/g | 2.29 % ID/g | 0.37 % ID/g | 0.77 nM | –
9 | CCNC(=O)c1nnc(-c2cc(C(C)C)c(O)cc2O)n1-c1ccc(CN2CCN(C(=O)CCNC(=O)[C@@H](CCC(=O)O)NC(=O)[C@@H](CCC(=O)O)NC(=O)[C@@H](CCC(=O)O)NC(=O)COCCOCCNC(=O)CCCCn3cc(CN(CCCNC(=O)CC[C@H](C(=O)O)N4CCN5CCN6CC(=O)[O][Lu]([O]C(=O)C5)[C]5(C6)OC(=O)CN5CC4)C(=O)CCCNC(=O)CCCc4ccc(I)cc4)nn3)CC2)cc1 (some centres unmarked) [CMP51] | – | – | – | – | – | – | – | – | – | T/K (Tumor/Kidney ratio) [1]: 0.7; T/L (Tumor/Liver ratio) [1]: 5.6; T/P (Tumor/Plasma ratio) [1]: 2.5; Kidney uptake, % ID/g 24 h [1]: 10.37 % ID/g; Liver uptake, % ID/g 24 h [1]: 1.35 % ID/g; Plasma, % ID/g 24 h [1]: 3.01 % ID/g; Tumor uptake, % ID/g, 24 h [1]: 7.54 % ID/g; tumor exposure selectivity (FIG. 1 legend) [4]: selective tumor exposure with the exception of kidney
